This is an account of results in patent publication US20060121056A1.

In this assay the target is SNAP-25 (rat) (UniProt P60881).

Regarding WGA-LHN/A conjugate (enzyme), the IC50, inhibition of glycine release from eSC neurons (3 days) (microgrammes/ml) was determined as 0.06 and the IC50, inhibition of substance P release from eDRG neurons (3 days) (microgrammes/ml) turned out to be 0.34.
